# Measurements: PMC5830440
# Target: BG505 SOSIP.664 Env trimer (HIV-1 (BG505))
# Experiment: BLI; biotinylated BG505 SOSIP.664 trimer (10 µg/mL) captured on Streptavidin biosensors; ScFv in 2-fold dilution series starting at 500 nM; 1:1 binding model, global fit; KD = koff/kon
substance,measurement,value
VRC01 ScFv (parental ScFv),Kd,< 1 pM
same,koff,< 1e-07 s⁻¹
